Measured values published in patent US20250163449A1, “HERBICIDE-TOLERANT GENES AND METHOD FOR USING SAME” (QINGDAO KINGAGROOT CHEMICAL COMPOUND CO., LTD., priority 2022, published 2025).
Numbering of substitutions follows the chain as printed. Names may count otherwise.

B1: SEQ ID NO: 42: RdpA mutant L82H + V187L + F182W + G103L (protein)
chain: MHAALSPLSQRFERIAVQPLTGVLGAEITGVDLREPLDDSTWNEILDAFHTYQVIYFPGQAITNEQHIAFSRRFGPVDPVPHLKSIEGYPEVQMIRREANESLRVIGDDWHTDSTFLDAPPAAVVMRAIDVPEHGGDTGFLSMYTAWETLSPTMQATIEGLNVVHSATRVFGSLYQAQNRRWSNTSLKVMDVDAGDRETVHPLVVTHPGSGRKGLYVNQVYCQRIEGMTDAESKPLLQFLYEHATRFDFTCRVRWKKDQVLVWDNLCTMHRAVPDYAGKFRYLTRTTVGGVRPAR
B2: SEQ ID NO: 142: RdpA mutant L82H + V187L + F182W + R104G + T112S + R180Q (protein)
chain: B1 chain with L103G, R104G, T112S, R180Q
B3: SEQ ID NO: 46: RdpA mutant L82H + V187L + F182W + R104G + T112S (protein)
chain: B1 chain with L103G, R104G, T112S

Tests used:
rice (Jinjing 818) [1] = experiment: Transgenic rice seedlings, compound B added to medium at rooting phase; assay type: in vivo; conditions: at least 1 μM compound B in medium (0.5 and 1 μM for SEQ ID NO: 42), 17-26 days
Procedure: Plant transformation vectors were constructed, each comprising a recombinant DNA molecule encoding an engineered protein (SEQ ID NO: 42/38/82/86/102/106/126/138/142) with the protein-coding sequence optimized for monocot expression, and rice (Jinjing 818) calli were transformed with these vectors using Agrobacterium tumifaciens and standard methods known in the art. Different concentrations of hormone herbicide compound B were added at the rooting phase of the rice seedlings to test hormone resistance, wherein, the test results of control Jinjing 818 plants and transgenic Jinjing 818 plants comprising the protein-coding gene of SEQ ID NO: 42 after adding 0.5 μM and 1 μM compound B to medium for 19 days are shown in FIG. 1. The test results of control Jinjing 818 plants and transgenic Jinjing 818 plants comprising the protein-coding genes of SEQ ID NO: 38/82/86/102/106/126/138/142 after adding 1 μM compound B to medium are shown in FIG. 5-11.

Arabidopsis thaliana [2] = experiment: T2 transgenic Arabidopsis thaliana seeds screened on compound A medium; assay type: in vivo; conditions: 0.15 μM compound A in medium, 11-24 days
From the text: Engineered proteins were selected for Arabidopsis thaliana transformation and plant analysis. DNA constructs were transformed into Arabidopsis thaliana using Agrobacterium tumifaciens and standard methods known in the art.
The transformed TO transgenic plantlets grew in the greenhouse. T1 generation Arabidopsis thaliana plant seeds produced by transformation of all constructs were collected after approximately 60 days of growth. Transgenic T1 generation Arabidopsis thaliana plants were screened by adding HYG to medium for T1 generation. T1 plants were selfed to produce seeds of T2 generation Arabidopsis thaliana plants. Wherein, compound A was added to medium to screen and test T2 generation Arabidopsis thaliana plant seeds, that were produced by all constructs, comprising unique events screened by T1 generation.

[3] = Conversion rate of substrate compound A by E. coli expressing each engineered protein (HPLC, oxygenase activity); assay type: biochemical
From the text: The high-throughput bacterial protein expression was achieved by cloning the synthesized gene that encodes each engineered protein into a bacterial expression vector with a C-terminal histidine tag (His-tag). The vectors were transformed into Escherichia coli (E. coli), and expression of the engineered proteins was induced. E. coli cultures were selected and cultured in centrifuge tubes overnight, meanwhile, added with substrates and IPTG, and the cultures were centrifuged to pellet the bacteria the next day. Alternatively, E. coli cultures were selected and cultured in centrifuge tubes overnight, and centrifuged to pellet the bacteria after adding substrates for reaction the next day. The supernatant of reaction solution was pipetted into a 96-well plate and the absorbance at 510 nm from 4-aminoantipyrine and potassium ferricyanide was measured by an endpoint colorimetric method to detect phenol products. Substrate reduction and product yield were measured by high performance liquid chromatography (HPLC) to detect the oxygenase activity (i.e., enzymatic activity) of the engineered proteins, and the activities of the proteins were compared by calculating conversion rates.
Conversion rate=(Peak area of initial substrate−Peak area of substrate after reaction)/Peak area of initial substrate*100%

rice (Jinjing 818) [4] = experiment: Transgenic rice T0 plantlets in greenhouse sprayed with compound B; assay type: in vivo; conditions: for tolerance compared with the wild types (summary): medicated medium test and greenhouse spraying test for T0 generation, compound B
Procedure: (§1) Then, the obtained regenerated TO generation transgenic plantlets grew in the greenhouse, and were sprayed with compound B at the growth stage when approximately two leaves unfolded and the third one just appearing. Resistance levels of plants were recorded and evaluated after spraying treatment, wherein, the test results of control Jinjing 818 plants and transgenic Jinjing 818 plants comprising the protein-coding gene of SEQ ID NO: 42 after applying 20 g, 40 g, 60 g, 80 g, 100 g, 120 g/mu (1 mu=1/15 ha) compound B for corresponding days (DAT) are shown in FIG. 2.

Arabidopsis thaliana [5] = experiment: T2 transgenic Arabidopsis thaliana plants foliage-sprayed with compound B; assay type: in vivo; conditions: foliage-sprayed with 40 g/mu compound B, 12 days
From the text: In addition, compound B was sprayed to test T2 generation Arabidopsis thaliana plants, that were produced by some of the constructs, comprising unique events screened by T1 generation, wherein, the test results of the wild-type Arabidopsis thaliana control plants transformed with RdpA gene and Arabidopsis thaliana plants comprising the protein-coding gene of SEQ ID NO: 42 after being foliage-sprayed with 40 g/mu compound B for 12 days are shown in FIG. 4.

soybean = experiment: Transgenic soybeans sprayed with compound C; assay type: in vivo; conditions: for resistance compared with the wild-type soybean: 10 g compound C sprayed
Procedure: Engineered proteins were selected for soybean transformation and plant analysis. DNA constructs were transformed into soybeans using Agrobacterium tumifaciens and standard methods known in the art.
The transformed TO transgenic plantlets grew in the greenhouse. TO generation transgenic plantlets were tested by spraying 10 g compound C. […] T1 generation soybean plant seeds produced by transformation of all constructs were collected, and T1 generation seedlings were tested by spraying 10 g compound C.

[6] = Enzymatic kinetic measurements of purified proteins with compound A as substrate; assay type: biochemical; conditions: purified protein, compound A 0-1000 μM as substrate
Procedure: Based on the results of HPLC, representative engineered proteins were selected for protein purification. Further protein characterization, such as Km, Vmax and Kcat, was performed on the 8 engineered proteins from Table 2. Conventional Ni column affinity chromatography was used for protein purification and protein extract purity was assessed by SDS-PAGE analysis. After determining protein concentration by BCA method, enzyme activity was determined.

maize = experiment: T0 transgenic maize plantlets sprayed with 30% glyphosate compound C (25+5) ME; assay type: in vivo
Procedure: Engineered proteins were selected for maize transformation and plant analysis. DNA constructs were transformed into maizes using Agrobacterium tumifaciens and standard methods known in the art.
The transformed TO transgenic plantlets grew in the greenhouse. TO generation transgenic plantlets were tested by spraying with 150 g, 250 g, 400 g, 600 g, 800 g of 30% glyphosate compound C (25+5) ME.

rice (Jinjing 818) [7] = experiment: Transgenic rice T0 plantlets in greenhouse sprayed with quizalofop-P-ethyl; assay type: in vivo; conditions: T0 plantlets foliage-sprayed with 5 g, 10 g/mu quizalofop-P-ethyl, 20 DAT
Procedure: as §1, with “The” for “Then, the”, “quizalofop-P-ethyl” for “B”, “46” for “42”, “applying 0 g, 5 g, 10 g/mu compound quizalofop-P-ethyl for” for “applying”, “DAT” for “g, 40 g, 60 g, 80 g, 100 g, 120 g/mu (1 mu=1/15 ha) compound B for corresponding days (DAT)”, “12.” for “2.”

[8] = Reaction condition 1: bacteria cultured overnight, substrate compound A and IPTG added to react overnight

Molecule	drug resistance (tolerance to compound B) compared with wild-type plants (rice (Jinjing 818) [1])	drug resistance compared with wild-type Arabidopsis thaliana (longer roots and larger leaves) (Arabidopsis thaliana [2])	Conversion rate [3, 8] [%]	drug resistance (tolerance to compound B) compared with wild-type plants (rice (Jinjing 818) [4]; T0 plantlets foliage-sprayed with 20-120 g/mu compound B, tolerance at at least 120 g/mu)	tolerance compared with the wild types (summary) (rice (Jinjing 818) [4])	drug resistance compared with wild-type plants transformed with RdpA gene (Arabidopsis thaliana [5])	drug resistance compared with the wild-type soybeans (soybean; T1 generation plantlets, 10 g, 20 g, 40 g, 80 g compound C sprayed, at least 40 g)	Kcat [6] [S^−1]	Km [6] [µM]	Vmax [6]	Conversion rate ([3]; Reaction condition 2: bacteria cultured overnight, 8 times dose of substrate compound A of condition 1 added, react 3 hours the next day) [%]	resistance compared with the wild-type soybean (soybean; T0 generation plantlets)	resistance compared with the wild-type soybean (soybean; T1 generation seedlings)	drug resistance compared with the wild-type maize (maize; 600 g 30% glyphosate compound C (25+5) ME)	phytotoxicity reaction of transgenic plantlets (maize; 600 g of 30% glyphosate compound C (25+5) ME)	phytotoxicity reaction of transgenic plantlets (maize; 800 g of 30% glyphosate compound C (25+5) ME)	phytotoxicity reaction of transgenic plantlets (maize; concentration below 600 g of 30% glyphosate compound C (25+5) ME)	drug resistance (tolerance to quizalofop-P-ethyl) compared with wild-type plants (rice (Jinjing 818) [7])
B1	exhibited better drug resistance	exhibited better drug resistance	96.6	exhibited better drug resistance	exhibited apparent tolerance	exhibited better drug resistance	exhibited better drug resistance	0.86	81.3	99.6								
B2	exhibited better drug resistance	exhibited better drug resistance			exhibited apparent tolerance						67							
B3		exhibited better drug resistance	97					0.15	17.5	35.2		exhibited apparent resistance	exhibited apparent resistance	better drug resistance	the stem base was slightly enlarged, the whole plant growth was obviously inhibited, and the plant was in normal condition	the stem base was significantly enlarged, inhibition on the whole plant growth was further intensified, and the leaf color became lighter and lusterless	no apparent phytotoxicity reaction	exhibited better drug resistance
